B1: Hammerhead Ribozyme (parent)
chain: ACCGGAUGUGCUUUCCGGUCUGAUGAGUCCGUGAGGACGAAACAG

Drawing on the RNAGym collection of RNA variant scans (doi:10.7554/elife.80360), this text covers self-cleavage for 167 variants.

The variants in the data set derive from B1. The data set is described as follows: self-cleavage, relative activity (ratio to wild type); higher = more cleavage; co-transcriptional.
A1U U7G: the self-cleavage worked out at 0.603.

In the case of C2U A23U, the self-cleavage stood at 0.415.

As to U7A, the self-cleavage was determined as 1.28.

With G35A G36U, the self-cleavage was 0.427.

In the case of U7G C29U, the self-cleavage turned out to be 1.02.

As for U24G A44C, the self-cleavage came out at 0.617.

With G18U C20A, the self-cleavage came out at 0.326.

In the case of U21G C29U, the self-cleavage is 0.471.

Turning to C2U U13G, the self-cleavage was 1.24.

As for G4C G8A, the self-cleavage was determined as 0.543.

Take A1G C30G: the self-cleavage was 1.26.

On to A26U A34U, for which the self-cleavage worked out at 0.584.

Turning to C2G C16A, the self-cleavage was found to be 0.335.

Turning to U14G U32G, the self-cleavage was determined as 1.01.

On to G8C G31A, for which the self-cleavage came out at 1.06.

On to G8C G36U, for which the self-cleavage worked out at 0.772.

On to U7G U13G, for which the self-cleavage was 1.67.

With C2U G33A, the self-cleavage was found to be 1.14.

As to U28C A44G, the self-cleavage amounted to 1.11.

Consider U14A C15G, for which the self-cleavage came out at 0.722.

For the variant A6C G35C, the self-cleavage worked out at 0.391.

For the variant G8C G18U, the self-cleavage is 0.611.

As to G8C C29G, the self-cleavage came to 0.571.

Turning to G35A G39A, the self-cleavage worked out at 0.312.

On to G18A U21A, for which the self-cleavage came out at 0.401.

Regarding C20G C43G, the self-cleavage was 0.432.

For the variant U9C C30A, the self-cleavage turned out to be 0.902.

For U14G A37C, the self-cleavage amounted to 0.777.

In the case of A23G G45A, the self-cleavage was 0.331.

G17U U19C: the self-cleavage was 0.397.

Consider U32G A41G, for which the self-cleavage came to 0.299.

Consider U32G A41C, for which the self-cleavage was 0.459.

In the case of G17C A42U, the self-cleavage amounted to 0.284.

For U19C A26C, the self-cleavage turned out to be 0.367.

Turning to G8C G22A, the self-cleavage stood at 0.347.

C30U C43A: the self-cleavage came to 0.34.

For the variant G5U G36A, the self-cleavage is 0.417.

Take G22A G35A: the self-cleavage stood at 0.336.

As to G17C A41C, the self-cleavage was determined as 0.272.

On to G5A U12G, for which the self-cleavage came to 1.31.

Take G4C G33U: the self-cleavage was found to be 0.837.

As for A37C G45C, the self-cleavage was determined as 0.337.

As for G25C A44C, the self-cleavage is 0.29.

With C20G U28G, the self-cleavage was found to be 0.323.

Consider A26C C30G, for which the self-cleavage came out at 0.33.

For G5C G36A, the self-cleavage was determined as 0.35.

Turning to U14G G33A, the self-cleavage is 0.518.

For A6C G45A, the self-cleavage stood at 0.384.

Regarding G5A U28G, the self-cleavage came to 0.377.

For G22C A23U, the self-cleavage came to 0.351.

U7G G33U: the self-cleavage came to 1.32.

Regarding U7G G33A, the self-cleavage is 1.34.

In the case of U9G U13C, the self-cleavage is 1.04.

Consider A6U A23U, for which the self-cleavage worked out at 0.311.

With A26C A40U, the self-cleavage was 0.352.

For the variant U13C G27A, the self-cleavage stood at 1.09.

With U14A G36U, the self-cleavage amounted to 0.528.

Regarding U13G, the self-cleavage was found to be 0.924.

Take G27C G31U: the self-cleavage came to 0.772.

Turning to U12A U32C, the self-cleavage worked out at 1.14.

For the variant C3A C16U, the self-cleavage was found to be 0.557.

U7C U9A: the self-cleavage turned out to be 0.524.

Turning to G31A C43G, the self-cleavage came out at 0.345.

For the variant G25A A41U, the self-cleavage was found to be 0.275.

As for G35A A42C, the self-cleavage stood at 0.354.

For the variant U19G G27A, the self-cleavage worked out at 0.301.

In the case of G5A G45A, the self-cleavage stood at 0.61.

Consider C11U G22C, for which the self-cleavage was determined as 0.339.

Take C2G G8U: the self-cleavage stood at 0.387.

Take C2G G8A: the self-cleavage was 0.385.

On to U9G U12G, for which the self-cleavage was 0.784.

With C3U A41U, the self-cleavage came to 0.378.

On to A1C C3U, for which the self-cleavage was found to be 0.345.

Turning to G10C A37U, the self-cleavage amounted to 0.576.

As for U19C G27C, the self-cleavage was 0.308.

For C2A C16A, the self-cleavage stood at 0.365.

For U12G G31C, the self-cleavage is 1.09.

In the case of G22C C43U, the self-cleavage worked out at 0.391.

As to G10C U21G, the self-cleavage came to 0.414.

As to U13G U32C, the self-cleavage came to 0.986.

In the case of G18A A40C, the self-cleavage was determined as 0.308.

With G25C U32C, the self-cleavage came to 0.342.

With C20A C29A, the self-cleavage was 0.382.

With G5U G17A, the self-cleavage was 0.337.

As to C29G G35A, the self-cleavage turned out to be 0.637.

Consider G39A A41C, for which the self-cleavage was 0.341.

Turning to G10C A44G, the self-cleavage stood at 1.44.

In the case of G22C U32G, the self-cleavage was 0.315.

With A23U A44U, the self-cleavage is 0.336.

On to G27U A42G, for which the self-cleavage was determined as 0.261.

U7G C43A: the self-cleavage is 0.382.

Take C11A A26U: the self-cleavage worked out at 1.03.

For U14C C38A, the self-cleavage amounted to 0.532.

As to C15A U28C, the self-cleavage stood at 0.425.

As to G33A A42U, the self-cleavage was determined as 0.27.

With C15A G33C, the self-cleavage was determined as 0.953.

Regarding G4C C15U, the self-cleavage was 0.557.

Consider G8U U32G, for which the self-cleavage was found to be 0.859.

For C29A G36A, the self-cleavage turned out to be 0.665.

Take C20U A34C: the self-cleavage is 0.369.

Regarding A1C G22C, the self-cleavage turned out to be 0.352.

On to C20G G31U, for which the self-cleavage amounted to 0.356.

In the case of U12G G17C, the self-cleavage came to 0.436.

On to A44G G45C, for which the self-cleavage was 2.15.

Consider G4A G8C, for which the self-cleavage worked out at 0.46.

A6C A42C: the self-cleavage turned out to be 0.35.

For the variant U7C G31C, the self-cleavage was 0.803.

On to A41U A42G, for which the self-cleavage amounted to 0.35.

For the variant G27C U32G, the self-cleavage came out at 0.705.

With C15G C16U, the self-cleavage turned out to be 0.58.

Consider U21C A26G, for which the self-cleavage is 0.295.

A34C G39A: the self-cleavage came to 0.288.

In the case of G10U, the self-cleavage amounted to 1.07.

C11G G39U: the self-cleavage amounted to 0.301.

For G22C G35A, the self-cleavage amounted to 0.337.

Regarding G22C G35C, the self-cleavage was 0.336.

As for U21C C43U, the self-cleavage stood at 0.487.

For the variant G8A A42U, the self-cleavage came to 0.297.

As for U7C G18A, the self-cleavage is 0.438.

As to U12G C38U, the self-cleavage was found to be 1.08.

With C29A C30G, the self-cleavage is 0.372.

Take U19C G22A: the self-cleavage was determined as 0.282.

On to C3G U14C, for which the self-cleavage came out at 0.56.

For the variant A34G A42C, the self-cleavage came to 0.294.

For A42U A44U, the self-cleavage was 0.276.

On to U9G A42U, for which the self-cleavage turned out to be 0.28.

With A1U C29A, the self-cleavage turned out to be 0.435.

Regarding C16A G18U, the self-cleavage was 0.525.

In the case of G18C G22C, the self-cleavage was 0.333.

Take U21C A42U: the self-cleavage was found to be 0.318.

With U12A A34U, the self-cleavage was determined as 1.

As to G22U G33C, the self-cleavage worked out at 0.363.

For the variant G36C C38U, the self-cleavage worked out at 0.335.

Turning to U9A A42G, the self-cleavage amounted to 0.218.

Regarding A6C U13A, the self-cleavage amounted to 0.906.

Regarding C29U A44C, the self-cleavage came out at 0.44.

As to U24G A42G, the self-cleavage stood at 0.346.

For U12A G27C, the self-cleavage was found to be 0.663.

Consider A34U C38G, for which the self-cleavage came to 0.403.

Take U7C G27A: the self-cleavage came out at 0.814.

Regarding G5C G10U, the self-cleavage is 0.64.

Consider C15U C43A, for which the self-cleavage was 0.413.

With C3G U7A, the self-cleavage was determined as 0.471.

Consider G36C A42U, for which the self-cleavage was determined as 0.286.

For the variant A1C U7G, the self-cleavage was 0.377.

In the case of C2U C16G, the self-cleavage came to 0.356.

As to U21C C30A, the self-cleavage was determined as 0.494.

U21C G22U: the self-cleavage is 0.277.

Turning to U13C A41U, the self-cleavage worked out at 0.362.

Turning to U9G G35A, the self-cleavage was determined as 0.707.

With C15U G27C, the self-cleavage was 0.749.

G8A G33C: the self-cleavage stood at 0.949.

On to U12C G45A, for which the self-cleavage turned out to be 0.777.

As to U32C G45C, the self-cleavage stood at 0.425.

Consider C15G A23U, for which the self-cleavage was determined as 0.303.

As for C20U A40U, the self-cleavage came out at 0.246.

Take U12C C15U: the self-cleavage came to 0.974.

For A26C U32G, the self-cleavage was 0.42.

As for A44C G45A, the self-cleavage was determined as 0.932.

Turning to U21A G22A, the self-cleavage was 0.35.

As for U21A G22U, the self-cleavage worked out at 0.407.

On to U9A G35C, for which the self-cleavage was 1.05.

Regarding A44U, the self-cleavage stood at 0.756.

With C2U, the self-cleavage is 1.17.

Turning to U12C, the self-cleavage was found to be 1.05.

In the case of G18C G36U, the self-cleavage was 0.337.

For C2U A37G, the self-cleavage was found to be 1.01.
